Among the data in paper PMC10242683, “Catalytic Cycle of the Bifunctional Enzyme Phosphoribosyl-ATP Pyrophosphohydrolase/Phosphoribosyl-AMP Cyclohydrolase” (ACS Catalysis, 2023) are IC50, Km and kcat values, retold here.

Data set [1] concerns the target T1, phosphoribosyl-ATP pyrophosphohydrolase/phosphoribosyl-AMP cyclohydrolase (AbHisIE) (Acinetobacter baumannii, UniProt V5VH18).
T1 construct: gene hisIE; full-length AbHisIE (A. baumannii strain ATCC17978), recombinant
T1 sequence (V5VH18 1-257): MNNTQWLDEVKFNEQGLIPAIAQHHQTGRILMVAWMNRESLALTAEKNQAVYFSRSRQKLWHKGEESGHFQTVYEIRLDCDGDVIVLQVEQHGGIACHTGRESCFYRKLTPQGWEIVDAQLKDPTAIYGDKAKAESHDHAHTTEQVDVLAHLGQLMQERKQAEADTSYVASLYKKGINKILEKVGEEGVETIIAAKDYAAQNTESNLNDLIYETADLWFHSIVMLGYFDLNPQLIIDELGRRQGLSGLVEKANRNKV
Briefly: initial rates of ProFAR formation from PRATP at […] nm, dose-response with purified AbHisIE. It counts as biochemical.

Substrate in data set [2]: N=c1c2ncn([C@@H]3O[C@H](COP(=O)(O)OP(=O)(O)OP(=O)(O)O)[C@@H](O)[C@H]3O)c2ncn1[C@@H]1O[C@H](COP(=O)(O)O)[C@@H](O)[C@H]1O
Briefly: purified protein. The note with it: Mg2+ (HisE-like domain); Zn2+ (HisI-like domain) pyrophosphohydrolase active site in the C-terminal HisE-like domain. In kind it is biochemical, Acinetobacter baumannii.

Substrate in data set [3]: N=c1c2ncn([C@@H]3O[C@H](COP(=O)(O)O)[C@@H](O)[C@H]3O)c2ncn1[C@@H]1O[C@H](COP(=O)(O)O)[C@@H](O)[C@H]1O
Kind of data set: purified protein. It counts as biochemical, Acinetobacter baumannii. The following applies: Zn2+ (HisI-like domain) cyclohydrolase active site in the N-terminal HisI-like domain.

On to `N=c1c2ncn([C@@H]3O[C@H](COP(=O)(O)OP(=O)(O)O)[C@@H](O)[C@H]3O)c2ncn1[C@@H]1O[C@H](COP(=O)(O)O)[C@@H](O)[C@H]1O` [PRADP], for which 52 ± 4 µM corresponded to half-maximal inhibition in data set [1] (IC50).

B1: phosphoribosyl-ATP pyrophosphohydrolase/phosphoribosyl-AMP cyclohydrolase (AbHisIE) (Acinetobacter baumannii) (protein)
chain: MNNTQWLDEVKFNEQGLIPAIAQHHQTGRILMVAWMNRESLALTAEKNQAVYFSRSRQKLWHKGEESGHFQTVYEIRLDCDGDVIVLQVEQHGGIACHTGRESCFYRKLTPQGWEIVDAQLKDPTAIYGDKAKAESHDHAHTTEQVDVLAHLGQLMQERKQAEADTSYVASLYKKGINKILEKVGEEGVETIIAAKDYAAQNTESNLNDLIYETADLWFHSIVMLGYFDLNPQLIIDELGRRQGLSGLVEKANRNKV
notes: full-length AbHisIE (A. baumannii strain ATCC17978), recombinant
As to B1, the Km – broadly, the concentration of substrate that gives half-maximal velocity – stood at 4.0 ± 0.7 µM in data set [2] and 11 µM in data set [3]. Besides, the kcat (in general, the number of substrate molecules converted per active site and unit of time at saturation) in data set [2] was 5.6 ± 0.3 s⁻¹.
